One assay concerns the target T1, Cynomolgus LAG-3-ECD (cynomolgus).
T1 construct: as printed it starts with the N-terminal leader (MWEAQ...) and ends with a His tag; also called Cynomolgus LAG-3 ECD-His
T1 chain: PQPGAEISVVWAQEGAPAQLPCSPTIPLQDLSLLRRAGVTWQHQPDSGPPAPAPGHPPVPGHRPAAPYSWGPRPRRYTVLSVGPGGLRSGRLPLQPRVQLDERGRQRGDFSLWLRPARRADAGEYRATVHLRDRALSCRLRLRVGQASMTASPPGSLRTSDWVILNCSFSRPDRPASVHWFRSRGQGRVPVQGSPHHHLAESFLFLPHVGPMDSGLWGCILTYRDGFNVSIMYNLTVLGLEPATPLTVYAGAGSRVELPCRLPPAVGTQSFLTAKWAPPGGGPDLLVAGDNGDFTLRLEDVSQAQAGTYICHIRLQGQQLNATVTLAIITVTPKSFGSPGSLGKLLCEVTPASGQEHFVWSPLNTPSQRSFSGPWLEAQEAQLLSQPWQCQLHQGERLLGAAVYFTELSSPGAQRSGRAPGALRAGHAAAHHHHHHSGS
Nature of the assay: SPR (Biacore T200), antibody captured on PrismA chip, ECD as analyte, 37° C. Here is the method: (§1) A Biacore® T200 (Cytiva, Marlborough, MA) was used to measure the binding kinetics and affinities of the LAG-3 antibody to the LAG-3 soluble extracellular domain (ECD) and the bispecific antibody to soluble LAG-3-ECD and PD-1-ECD (human: Sino Biologicals, Cat #10377-H08H; cynomolgus: Sino Biologicals, Cat #90311-C08H) by surface plasmon resonance. Samples were diluted in HBS-EP+ (10 mM Hepes, 150 mM NaCl, 3 mM EDTA, 0.05% Tween-20, pH 7.6) (Teknova Cat #H8022) with 5 g/L of BSA (Jackson ImmunoResearch Cat #001-000-161) running buffer. PrismA Series S Sensor chip (Cat #29650263) is purchased from Cytiva.
(§2) Binding was evaluated using multi-cycle kinetics by an antibody capture method. Each cycle was performed at either 37° C. or 25° C. at a flow rate of 10 μL/min for antibody capture to the PrismA chip and 100 μL/min for analyte association (with 120 sec contact time) and dissociation (900 sec). Each cycle consisted of the following steps: injection of bispecific antibody at 1 μg/mL in HBS-EP+ targeting Rmax values of 125 RU (LAG-3 arm), 294 RU (PD-1 arm) and 63 RU (LAG-3 antibody) on flow cell, injection of analyte in HBS-EP+(concentration range of 62.5 nM to 0.25 nM by two-fold serial dilution for both human PD-1-ECD-His (SEQ ID NO: 40) and human LAG-3-His (SEQ ID NO: 42) followed by 900-second dissociation phase, and regeneration using 10 μL of 10 mM glycine hydrochloride, pH 1.5 over a 60-second contact time utilizing a 10 μL/min flow rate. All analyte concentrations were determined utilizing monomeric molecular weight (MW) values. Association rates (kₒₙ) and dissociation rates (koff) for LAG-3-ECD and PD-1-ECD were evaluated using double referencing by flow-cell one reference subtraction in addition to 0 nM blank subtraction and fit to “1:1 (Langmuir) binding” model in the BIAevaluation software version 4.1. The dissociation constant (KD) was calculated from the binding kinetics according to the relationship KD=Koff/Kₒₙ. Stoichiometry=[RUₘₐₓ/RUcaptured]/[MWanalyte/MWantibody] where MWAntibodyA is 150 kDa. Values are reported as mean±standard deviation.
On the technique in general: SPR reads the build-up and loss of mass on a sensor chip optically.

The target in another assay is T2, Human LAG-3 ECD-His (human, UniProt P18627 23-449).
T2 construct: Soluble analyte in SPR; the entry includes linker and His tag; also called human LAG-3-His
T2 sequence: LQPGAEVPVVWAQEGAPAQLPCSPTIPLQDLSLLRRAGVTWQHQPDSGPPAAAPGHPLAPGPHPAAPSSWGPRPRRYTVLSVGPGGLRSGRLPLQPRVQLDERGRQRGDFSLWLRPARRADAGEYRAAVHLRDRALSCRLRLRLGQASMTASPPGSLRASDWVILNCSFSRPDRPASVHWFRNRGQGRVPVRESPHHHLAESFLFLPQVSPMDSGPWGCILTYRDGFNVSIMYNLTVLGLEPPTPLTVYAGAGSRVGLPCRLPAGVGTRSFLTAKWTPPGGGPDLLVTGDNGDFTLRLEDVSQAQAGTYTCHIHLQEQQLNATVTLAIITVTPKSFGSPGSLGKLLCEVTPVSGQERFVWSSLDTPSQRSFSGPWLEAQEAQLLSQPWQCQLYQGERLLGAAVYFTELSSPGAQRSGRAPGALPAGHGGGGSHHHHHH
Described as above. The method, then:
as §1, §2

Assay [1] deals with T3, cell surface cynomolgus monkey LAG-3 (cynomolgus).
T3 construct: whole, on cells
Description: flow cytometry, labeled antibody on anti-CD3 activated cynomolgus PBMC, CD8 T cells, percent of cells bound (mean +/- SEM, n=3). The method, then:
(§3) Cells were incubated with 10-12 point, 3-fold serial dilutions of the respective labeled antibody (Invitrogen #S20026, Invitrogen #C20029), starting at 30 ug/mL, in PBS+2% FCS for 30 minutes at 4° C. and containing the following: CD4 eBioscience #12-0047-42 or Biolegend #344634; CD8 eBioscience #25-0088-42; CD3 eBioscience 56-0038-82 for human cells and BD #557917 for cyno cells; CD33 eBioscience 45-0338-42 for human cells; Live/Dead eBioscience #65-0865-18. After washing thoroughly, cells were processed on a BD Fortessa or Fortessa X20 cytometer, and data were analyzed with Flowjo software (BD Biosciences). Percent of cells bound by the respective antibody is quantified and graphed with Prism (Graphpad, San Diego, CA).
(In flow cytometry, cells or beads pass a laser one at a time.)

The target of assay [2] is T4, cell membrane-expressed human LAG-3 (human, UniProt P18627 23-525).
T4 construct: also called hLAG-3; CD223
T4 sequence: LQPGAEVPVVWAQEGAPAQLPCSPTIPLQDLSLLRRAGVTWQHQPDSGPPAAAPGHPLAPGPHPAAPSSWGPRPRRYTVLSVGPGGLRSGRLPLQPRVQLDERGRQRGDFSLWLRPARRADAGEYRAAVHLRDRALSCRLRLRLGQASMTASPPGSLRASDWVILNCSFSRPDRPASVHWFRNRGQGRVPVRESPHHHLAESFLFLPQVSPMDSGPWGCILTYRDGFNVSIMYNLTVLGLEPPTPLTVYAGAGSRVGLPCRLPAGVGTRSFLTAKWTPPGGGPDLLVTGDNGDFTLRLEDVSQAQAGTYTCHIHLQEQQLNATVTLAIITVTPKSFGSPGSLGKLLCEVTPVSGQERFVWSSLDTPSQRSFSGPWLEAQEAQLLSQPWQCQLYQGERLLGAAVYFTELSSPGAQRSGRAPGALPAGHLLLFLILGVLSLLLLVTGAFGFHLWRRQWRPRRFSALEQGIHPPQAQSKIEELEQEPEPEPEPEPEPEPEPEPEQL
Description: flow cytometry, labeled antibody on anti-CD3 activated human PBMC, CD4 T cells, percent of cells bound (mean +/- SEM, n=3). The method, then: as §3

In assay [3] the target is T3, cell surface cynomolgus monkey LAG-3. Nature of the assay: flow cytometry, labeled antibody on anti-CD3 activated cynomolgus PBMC, CD4 T cells, percent of cells bound (mean +/- SEM, n=3). Here is the method: as §3
Assay [4] deals with T4, cell membrane-expressed human LAG-3. Nature of the assay: flow cytometry, labeled antibody on anti-CD3 activated human PBMC, CD8 T cells, percent of cells bound (mean +/- SEM, n=3). The method, then: as §3

The values below come from US20240166745A1 (Eli Lilly, published 2024).

The term Kd denotes a measure of binding affinity in units of concentration. One may read the koff as the rate constant with which the complex falls apart. One may read the kon as the rate constant with which the complex forms. For orientation: EC50 means the concentration that produces a half-maximal response.

B1: Antibody E (antibody, V domains shown)
VH: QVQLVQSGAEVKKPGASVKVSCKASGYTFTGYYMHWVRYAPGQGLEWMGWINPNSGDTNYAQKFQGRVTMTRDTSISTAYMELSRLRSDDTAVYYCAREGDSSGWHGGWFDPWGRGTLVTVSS
VL: DIVMTQTPLSLPVTPGEPASISCRSSQSLLDSAEGSTYLDWFLRKPGDSPQLLIYTLSYRASGVPDRFSGSGSGTDFTLKISRVEAEDVGVYYCMQRVEFPYTFGQGTKVEIKR
notes: Monospecific LAG-3 antibody; also called human LAG-3 Antibody E
Take B1: the dissociation constant Kd in the assay with Cynomolgus LAG-3-ECD was found to be 0.038 nM; with Human LAG-3 ECD-His, 1 nM. Moreover, the koff with Cynomolgus LAG-3-ECD amounted to 0.0042 s⁻¹; with Human LAG-3 ECD-His it was 0.16 s⁻¹. Also, the values for the kon with Cynomolgus LAG-3-ECD and with Human LAG-3 ECD-His were 1.1e+08 M⁻¹ s⁻¹ and 1.5e+08 M⁻¹ s⁻¹, respectively. Besides, the EC50 in assay [1] stood at 6.5 ng/mL; in assay [2], 8.7 ng/mL; in assay [3], 10.5 ng/mL; in assay [4] it was 3.4 ng/mL.
